Test results reported in US20260234223A1 (LEYDEN LABORATORIES B V, published 2026).

Target: SARS-CoV-2 Omicron BA.4 Spike (on pseudovirions) (SARS-CoV-2 Omicron BA.4)
Assay: cell-based or functional assay

B1: COV30-14 (antibody, V domains shown)
VH: QVQLVQSGAEVKKPGASVKVSCQTSGYTFTSYYMHWVRQAPGQGLEWMGLITPSGDDTYYAQRFQGRVTMTRDTSTSPTYMELSSLTSEDTAVYYCAKMSRAGGFDVWGQGTLVTVSS
VL: EVVLTQSPGTLSLSPGERATLSCRASQSITGRYLAWYQQKPGQAPRLLMYGESSRVTGIPDRFSGGGSGTDFTLTISRLEPEDFAVYYCQHFASSPPTYTFGQGTKLEIR
notes: also called the antibody according to the invention; the antibody according to invention
Pseudovirion neutralization IC50 (geometric mean): 7.6 µg/mL
